Columns and labels:
[1] = test system: chloroplasts of tobacco cells; assay: Tobacco transient assay: confocal microscopy of TraP-YFP localization; type: cell-based, Nicotiana benthamiana; details: Agrobacterium-infiltrated tobacco leaves
Text: The Trap8 and TraP9 chimeric chloroplast transit peptide sequences were initially tested via a transient in planta assay. Polynucleotide sequences which encode the Trap8 (SEQ ID NO:5) and TraP9 (SEQ ID NO:6) chimeric chloroplast transit peptide sequences were synthesized. A linker sequence (SEQ ID NO:7) was incorporated between the TraP sequence and the yfp coding sequence. The resulting constructs contained two plant transcription units (PTU). The first PTU was comprised of the Arabidopsis thaliana Ubiquitin 10 promoter (AtUbi10 promoter; Callis, et al., (1990) J. Biol. Chem., 265: 12486-12493), TraP-yellow fluorescent protein fusion gene (TraP-YFP; US Patent App. 2007/0298412), and Agrobacterium tumefaciens ORF 23 3′ untranslated region (AtuORF23 3′UTR; U.S. Pat. No. 5,428,147). […]
Agrobacterium-infiltrated tobacco leaves were severed from the plant, and placed into a petri-dish with water to prevent dehydration. The infiltrated tobacco leaves were observed under blue light excitation with long-pass filter glasses held in place using a Dark Reader Hand Lamp™ (Clare Chemical Research Co.; Dolores, Colo.) to identify undamaged areas of the leaf that were successfully expressing the YFP reporter proteins. […]

YFP protein = assay: Western blot of infiltrated tobacco leaves (YFP expression, transit peptide processing); parameters: species or system Nicotiana benthamiana; details: infiltrated tobacco leaf tissue
Method: Samples of the infiltrated tobacco plants were assayed via Western blotting. Leaf punches were collected and subjected to bead-milling. About 100-200 mg of leaf material was mixed with 2 BBs (steel balls) (Daisy; Rogers, Ark.) and […] of PBST for 3 minutes in a Kleco™ bead mill. The samples were then spun down in a centrifuge at 14,000×g at 4° C. The supernatant was removed and either analyzed directly via Western blot or immunoprecipitated. The immunoprecipitations were performed using the Pierce Direct IP Kit™ (Thermo Scientific; Rockford, Ill.) following the manufacturer's protocol. Approximately, 50 μg of anti-YFP was bound to the resin. The samples were incubated with the resin overnight at 4° C. Next, the samples were washed and eluted the following morning and prepped for analysis by combining equal volumes of 2×8M Urea sample buffer and then boiling the samples for 5 minutes. The boiled samples were run on a 4-12% SDS-Bis Tris gel in MOPS buffer for 40 minutes. The gel was then blotted using the Invitrogen iBlot™ (Life Technologies; Carlsbad, Calif.) following the manufacturer's protocol. The blotted membrane was blocked for 10 minutes using 5% non-fat dry milk in PBS-Tween solution. The membrane was probed with the primary antibody (monoclonal anti-GFP in rabbit) used at a 1:1000 dilution in the 5% non-fat dry milk in PBS-Tween solution for 1 hour. […]

B1: TraP8: chimeric chloroplast transit peptide SEQ ID NO:3; N-terminus from Brassica napus EPSPS CTP, C-terminus from Brassica rapa (protein)
chain: MAQSSRICHGVQNPCVIISNLSKSNQNKSPFSVSLKTHQQQRRAYQISSWGLKKSNNGSVIRPVK
modifications: TraP8 chimeric chloroplast transit peptide
notes: N-terminus from Brassica napus EPSPS CTP, C-terminus from Brassica rapa
In the case of B1, the “Localization of YFP fluorescence in tobacco leaf cells” value [1] is reported as “accumulated within the chloroplasts” and the “Processing (cleavage) of transit peptide from YFP by Western blot” value (YFP protein) is reported as “processed”.

— patent US9493781B2, “Synthetic brassica-derived chloroplast transit peptides” (DOW AGROSCIENCES LLC, priority 2012, dated 2016)
